Test results taken from patent US20250059284A1.

Columns and labels:
[1] = molecular target: galectin-10 (Gal10), species and tag not stated for the assay (UniProt Q05315); experiment: competition ELISA; negative control; competitor biotinylated g7B07 hFab (detected)
[2] = molecular target: galectin-10 (Gal10), species and tag not stated for the assay (UniProt Q05315); experiment: competition ELISA; negative control, set as 0% competition; competitor biotinylated g7B07 hFab

galectin-10 (Gal10), species and tag not stated for the assay, sequence (Q05315 2-142 limits assumed): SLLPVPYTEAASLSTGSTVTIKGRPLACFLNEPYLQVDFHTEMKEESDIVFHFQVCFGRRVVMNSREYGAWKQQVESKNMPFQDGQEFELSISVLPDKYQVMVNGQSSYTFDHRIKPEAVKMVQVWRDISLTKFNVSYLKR

**Q.** Which results are given for Motavizumab in human Fab backbone?
**A.** Mean OD value [1]: 2.51 OD; % Competition against g7B07-Biot [2]: 0%
